In patent publication US20050113286A1, “Methods for treating congestive heart failure” (priority 2002, published 2005):
Entries after “also recorded” stand apart in the source; their conditions may differ.

How the values were obtained:
[1] = system: endothelin-1; test: FUSION I: serum endothelin-1; assay type: in vivo, human
Excerpt: Surrogate measures with mechanistic implications included measures of serum aldosterone, serum endothelin-1, and serial measurements of ventricular function using ejection fractions derived from echocardiography. […] Left ventricular ejection fractions were serially measured and read at a core lab (Midwest Heart Foundation Echocardiographic Core Laboratory, Lombard, Ill.).

[2] = system: patients with chronic decompensated HF; test: FUSION I: quality of life, Minnesota Living With HF questionnaire; assay type: in vivo, human; conditions: weeks 4, 8, and 12
Procedure: At weeks 4, 8, and 12, the change from baseline global clinical status was assessed by both the patient and the investigator; assessments were rated on a 7-point ordinal scale from markedly worse (−3) to markedly better (+3).^1l,12 In addition, patients' assessment of quality of life was measured at baseline and at weeks 4, 8, and 12 using the Minnesota Living With HF questionnaire. (Rector TS, Kubo SH, Cohn J N. Patients' self-assessment of their congestive heart failure. Part 2: Content, reliability and validity of a new measure, The Minnesota Living with Heart Failure Questionnaire. Heart Failure 1987;October/November:198-209.)

[3] = system: patients with chronic decompensated HF; test: FUSION I: safety and tolerability of serial outpatient nesiritide infusions; assay type: in vivo; conditions: for Patients discontinued from the study before week 12 because of an AE, number / Patients discontinued from the study prematurely due to an AE, %: primarily worsening HF
Procedure: The objective of the FUSION I study was to assess the safety and tolerability of nesiritide when administered in an outpatient setting as serial parenteral infusions to patients with chronic decompensated HF who were at high risk for hospitalization and were receiving established usual therapy for HF. The study compared usual care with usual care plus nesiritide given as 1 of 2 dosing strategies. All patients were evaluated weekly and treated in established HF clinics.
In this multicenter, open-label, pilot study, patients were randomly assigned to 1 of 3 treatment groups in a 1:1:1 ratio: (1) usual care, as determined by the investigating physician; (2) usual care plus nesiritide 0.005 μg/kg/min given for 4 to 6 hours, preceded by a 1.0-μg/kg bolus; or (3) usual care plus nesiritide 0.01 μg/kg/min given for 4 to 6 hours, preceded by a 2.0-μg/kg bolus (FIG. 1). The study treatment period was 12 weeks with an additional 4 weeks of follow-up. Nesiritide (Natrecor®) was supplied by Scios Inc., Fremont, Calif. Informed consent was obtained from each patient prior to enrollment, and the Ethics Committee of each institution prospectively approved the study.
All patients, regardless of treatment assignment, were required to have weekly clinic visits in an established HF clinic. If the patient had been randomized to nesiritide, half of the protocol-specified nesiritide dose was administered on the first weekly visit to assess safety. The 0.005 μg/kg/min nesiritide group received a 0.5 μg/kg bolus followed by a 0.0025 μg/kg/min infusion; and the 0.01 μg/kg/min nesiritide group received a 1.0 μg/kg bolus followed by a 0.005 μg/kg/min infusion. At subsequent visits (starting with week 2), the dose was increased to the protocol-specified dose for that group.
Nesiritide was administered as an IV bolus immediately followed by a fixed-rate infusion for 4 to 6 hours, based on the investigators' discretion, for 12 consecutive weeks. Before each infusion, the investigator assessed the patient's hydration status and HF symptoms as per the protocol. The investigator could choose the infusion frequency from once every other week to twice weekly based on hydration status and HF symptoms.
The primary goal of this open-label study was to assess the safety and tolerability of different nesiritide doses administered as serial outpatient infusions. Safety and tolerability were measured through investigator reporting of adverse events (AEs), serious AEs, discontinuations of study infusions, laboratory assessments, and vital signs. An AE was defined as any new onset or worsening of any medical condition since study entry. A serious AE were those AEs, which lead to death, hospitalization, or prolonged hospitalization. The effect of nesiritide infusions on renal function was also monitored as a safety variable, with renal AEs defined as increased blood urea nitrogen (BUN) or serum creatinine levels (determined by investigator's discretion), onset of oliguria, or occurrence of acute renal failure. Clinical events were followed to further evaluate safety and tolerability.

[4] = 0.005 μg/kg/min, n = 72, 819 infusions
[5] = 0.01 μg/kg/min, n = 69, 826 infusions
[6] = all nesiritide patients, n = 141
[7] = all nesiritide patients, n = 141, 1645 infusions

Substance: Nesiritide: a recombinant form of human B-type natriuretic peptide (BNP)
- Mean change (±standard deviation) in post-infusion concentration of endothelin-1 ([1]; 0.005-μg/kg/min): -0.2 ± 1.5 pg/mL
- Mean change (±standard deviation) in post-infusion concentration of endothelin-1 ([1]; 0.01-μg/kg/min, p=0.04 compared to baseline): -0.6 ± 2.0 pg/mL
- Post-infusion levels of endothelin-1 versus baseline ([1]; after the week 12 infusion, all-nesiritide group, p=0.008 (FIG. 2B)): significant change from baseline
- Quality of life, between treatment groups [2]: no significant differences
- Quality of life compared with baseline ([2]; all treatment groups): significant improvement
- Patients with infusion stopped due to adverse event, % ([3]; 0.005 μg/kg/min, n = 72): 6%
- Patients with infusion stopped due to adverse event, number ([3]; 0.005 μg/kg/min, n = 72): 4
- Infusion completed, % of infusions [3, 4]: 99%
- Infusion completed, number of infusions [3, 4]: 814
- Infusions stopped due to adverse event, % [3, 4]: < 1%
- Infusions stopped due to adverse event, number [3, 4]: 4
- Patients discontinued from the study before week 12 because of an AE, number ([3]; 0.005 μg/kg/min): 7
- Patients discontinued from the study prematurely due to an AE, % ([3]; 0.005 μg/kg/min): 10%
- Patients with infusion stopped due to adverse event, % ([3]; 0.01 μg/kg/min, n = 69): 7%
- Patients with infusion stopped due to adverse event, number ([3]; 0.01 μg/kg/min, n = 69): 5
- Infusion completed, % of infusions [3, 5]: 99%
- Infusion completed, number of infusions [3, 5]: 814
- Infusions stopped due to adverse event, % [3, 5]: < 1%
- Infusions stopped due to adverse event, number [3, 5]: 7
- Patients discontinued from the study before week 12 because of an AE, number ([3]; 0.01 μg/kg/min): 2
- Patients discontinued from the study prematurely due to an AE, % ([3]; 0.01 μg/kg/min): 3%
- Deaths considered related to study medication ([3]; 12-week treatment period): in no case
- Adverse cardiovascular or renal events compared with usual care ([3]; RAS≧4 cohort): not associated with an increase; also recorded: tended to have a lower incidence
- Patients with infusion stopped due to adverse event, % [3, 6]: 6%
- Patients with infusion stopped due to adverse event, number [3, 6]: 9
- Infusion completed, % of infusions [3, 7]: 99%
- Infusion completed, number of infusions [3, 7]: 1628
- Infusions stopped due to adverse event, % [3, 7]: < 1%
- Infusions stopped due to adverse event, number [3, 7]: 11
- Infusion completed, number of infusions ([3]; all nesiritide patients, n = 141, 1645 infusions, listed as nesiritide): 1,628
- Safety and tolerability of serial outpatient infusions ([3]; both doses, 12 weeks, outpatient setting): similarly well tolerated; also recorded: safe and well tolerated
- Frequency of observed AEs compared with usual-care group ([3]; either nesiritide group, through 12 weeks, all patients): no increase
- Cardiovascular AEs, including symptomatic hypotension, and renal AEs compared to usual-care group ([3]; nesiritide groups, all patients): not increased
